Assays:
Format in all cases: cell-based, human
Galr2 [1] = test: Gαq-dependent Erk1/2 phosphorylation (β-arrestin1/2-knockout HEK293 cells); details: for ΔLog(τ/KA), Gαq-dependent-pErk1/2: normalized to Galanin (reference agonist), in parenthesis, mean ± s.e.m. of three experiments in triplicate; for Log(τ/KA), Gαq-dependent-pErk1/2: western blot, 5 min stimulation, operational model (Eq. 2), mean ± s.e.m. of three experiments in triplicate (table footnote)
Description: (§1) Galr2 is primarily coupled to the Gαq-protein which activates the phospholipase C/protein kinase C pathway for inositol phosphate production. We measured G-protein activation in HEK293 cells transiently expressing Galr2, using the serum response element-luciferase (SRE-Luc) gene reporter assay[10],[37] and for a more specific monitoring of Gαq-protein activity we also measured total inositol phosphate production. […] However, some differences were observed between SRE-Luc activity and total inositol phosphate production in the rank order of potency of the tested ligands. […] Phosphorylation of extracellular signal-regulated protein kinases 1 and 2 (pErk1/2) is either G-protein or β-arrestin dependent. To distinguish Gαq-protein- and β-arrestin1/2-dependent Erk1/2 signaling, we examined ligand-stimulated Erk1/2 phosphorylation in three different HEK293 cell lines, wild type, Gαq/11-knockout, and β-arrestin1/2-knockout cells. All three ligands induced high levels of Erk1/2 phosphorylation dose-dependently in wild-type HEK293 cells.
(§2) Fig. 5 Galr2 agonists display different Gαq-protein-dependent signaling and pErk1/2. The ability of increasing concentrations of agonists to induce a SRE-Luc activity and b total inositol phosphate production. c Representative western blot showing ligand-induced phosphorylation of Erk1/2 from wild-type (HEK293 WT), Gαq/11-, and β-arrestin1/2-knockout HEK293 cells expressing Galr2 (original blots are presented in Supplementary Figure 4). pErk1/2 and total Erk levels were determined at 5 min after stimulation of different concentrations of three ligands. Western blot band intensities corresponding to each concentration were quantified using Image studio ^TM Software. […] Data are the mean ± s.e.m. values of two independent experiments
(§3) pErk1/2 was measured using western blot assay. HEK293 Gαq/11 and β-arrestin1/2-knockout cells were a kind gift from Professor Asuka Inoue, Tohoku University. The cells were seeded into 6-well plates at a density of 6 × 10^5 cells per well. The next day, they were transfected using 2 μg/well of plasmid containing human Galr2 cDNA and Lipofectamine 2000, according to the manufacturer’s instructions. Before assay, the cells were washed with phosphate-buffered saline and incubated in serum-free DMEM overnight. Dose–response experiments were performed for each ligand at 37 °C. Stimulation of the cells was terminated after 5 min of agonist stimulation by removing the medium, and the addition of 250 μl cold lysis buffer to each well. Immunoblots of phospho-Erk1/2 were obtained using 8 μg of total protein and p44/42 MAPK Erk1/2 antibody (Cell Signaling Technology Inc, catalog no. 4370 S); horseradish peroxidase-conjugated goat anti-rabbit IgG was used as a secondary antibody (Thermo Fisher Scientific). The proteins were visualized using enhanced chemiluminescence (GE Health Care). Image Studio ^TM Software was used for the pErk1/2 band density analysis.

Galr2 [2] = test: Total inositol phosphate production; details: for Log(τ/KA), Total inositol phosphate: HEK293 cells, human Galr2, 40 min at 37 °C, operational model (Eq. 2)
Description: as §1, §2
Galr2 activation was monitored using measurement of total inositol phosphate (IP + IP2 + IP3) production in HEK293 cells expressing human Galr2. For this assay, cells were seeded in 12-well plates at a density of 2.5 × 10^5 cells per well. The next day, the cells were transiently transfected with 1 μg/well plasmid containing human Galr2, using the Lipofectamine 2000 (Invitrogen) transfection reagent. The day after transfection, the cells were incubated in M199 medium containing 1% FBS, 1% L-glutamine, 1% penicillin/streptomycin, and 1 μCi/well myo-^3H inositol for 20 h. After a 30-min incubation in buffer A (140 mM NaCl, 20 mM Hepes, 4 mM KCl, 8 mM D-glucose, 1 mM MgCl2, 1 mM CaCl2, 1 mg/ml free fatty acid bovine serum albumin, and 10 mM LiCl at pH 7.2), the cells were exposed to the agonist for 40 min at 37 °C. […] The radioactivity of the samples was measured using a TRI carb 3100TR liquid scintillation analyzer (Packard).

Galr2 [3] = test: β-Arrestin1/2-dependent Erk1/2 phosphorylation (Gαq/11-knockout HEK293 cells); details: for ΔLog(τ/KA), β-Arrestin1/2 dependent-pErk1/2: normalized to Galanin (reference agonist), in parenthesis, mean ± s.e.m. of three experiments in triplicate; for Log(τ/KA), β-Arrestin1/2 dependent-pErk1/2: western blot, 5 min stimulation, operational model (Eq. 2), mean ± s.e.m. of three experiments in triplicate (table footnote)
Description: as §1, §2
as §3, with “The proteins were visualized using enhanced chemiluminescence (GE Health Care). Image Studio ^TM Software was used for the pErk1/2 band density analysis.” left out

Galr2 [4] = test: SRE-Luc gene reporter assay; details: for Log(τ/KA), SRE-Luc: HEK293 cells, Galr2, 6 h ligand treatment, operational model (Eq. 2)
Description: as §1, §2
Quantification of bias between each pathway was performed using Galanin as a reference ligand. All incubations for the different signaling assays were performed in serum-free medium to prevent peptide degradation.
One day before transfection, cells were seeded in 48-well plates at a density of 2.5 × 10^4 cells per well. A mixture containing 75 ng SRE-Luc reporter construct, 75 ng expression plasmid, and 0.3 μl Lipofectamine 2000 (Invitrogen) was prepared and added to each well, according to the manufacturer’s instructions. The cells were then maintained in serum-free DMEM for 16–18 h before exposure to the ligands. Approximately 48 h after transfection, the cells were treated with the respective ligands for 6 h. The cells were then lysed using 100 μl lysis buffer. The luciferase activity in 50 μl cell extract was determined using a luciferase assay system, following the standard protocol for the Synergy 2 Multi-Mode Microplate Reader Biotek.

[5] = mean ± s.e.m. of three experiments in triplicate
[6] = normalized to Galanin (reference agonist), in parenthesis, mean ± s.e.m. of three experiments in triplicate
[7] = HEK293 cells transiently expressing Galr2

Row | Molecule | ΔLog(τ/KA), Gαq-dependent-pErk1/2 (Galr2 [1]) | Log(τ/KA), Gαq-dependent-pErk1/2 (Galr2 [1]) | Log(τ/KA), Total inositol phosphate (Galr2 [2]; [5]) | ΔLog(τ/KA), Total inositol phosphate (Galr2 [2]; [6]) | ΔLog(τ/KA), β-Arrestin1/2 dependent-pErk1/2 (Galr2 [3]) | Log(τ/KA), β-Arrestin1/2 dependent-pErk1/2 (Galr2 [3]) | Log(τ/KA), SRE-Luc (Galr2 [4]; [5]) | ΔLog(τ/KA), SRE-Luc (Galr2 [4]; [6]) | pathway responsible for agonist-induced Erk1/2 phosphorylation (Galr2 [1]; from comparison of wild-type, Gαq/11- and β-arrestin1/2-knockout HEK293 cells) | efficacy in total inositol phosphate production (Galr2 [2]; [7]) | efficacy in SRE-Luc assay (Galr2 [4]; [7])
1 | Galanin [reference compound] | 0.00 ± .22 | 6.90 ± 0.22 | 4.20 ± 0.03 | 0.00 ± 0.02 | 0.00 ± 0.40 | 6.42 ± 0.41 | 4.80±0.007 | 0.00 ± 0.007 |  |  | 
2 | Spexin (peptide, UniProt Q9BT56 27-116, looked up, Spexin, endogenous peptide ligand of Galr2 and Galr3; synthesized by AnyGen) Spexin: APQRLLERRNWTPQAMLYLKGAQGRRFISDQSRRKDLSDRPLPERRSPNPQLLTIPEAATILLASLQKSPEDEEKNFDQTRFLEDSLLNW | 0.57 ± 0.22 | 7.47 ± 0.21 | 4.40 ± 0.03 |  | 0.73 ± 0.13 | 7.15 ± 0.14 | 4.95±0.04 |  | likely mainly attributable to the G-protein-dependent signaling pathway | substantially higher efficacy | substantially higher efficacy

— article PMC6123711, “Conformational signatures in β-arrestin2 reveal natural biased agonism at a G-protein-coupled receptor” (Communications Biology, 2018)
